Results reported in patent US20230174608A1 (published 2023).
Where no end group is shown, it is not given here. [ ]: non-standard residue; d: D form. Aib = CC(C)(N)C(=O)O

Assays:
[1] = target: Glucagon receptor (GCGR), stably expressed on HEK293 cells; test: cell-based or functional assay
[2] = target: GLP-1 receptor (GLP-1R), stably expressed on HEK293 cells; test: cell-based or functional assay

Binder	GCGR (nM EC50), receptor-mediated cAMP production in HEK293 cells [1] [nM]	GLP-1R (nM EC50), receptor-mediated cAMP production in HEK293 cells [2] [nM]
HXQGTFTSDYSKYLDERAAKEFIAWLEGEG (HELM PEPTIDE1{H.[Aib].Q.G.T.F.T.S.D.Y.S.K.Y.L.D.E.R.A.A.K.E.F.I.A.W.L.E.G.E.G.[am]}|PEPTIDE2{[CCCCCCCCCCCCCCCC(=O)[*:2]].[gGlu]}$PEPTIDE1,PEPTIDE2,20:R3-2:R2$$$V2.0; N-terminus assumed; SMILES CCCCCCCCCCCCCCCC(=O)N[C@@H](CCC(=O)NCCCC[C@H](NC(=O)[C@H](C)NC(=O)[C@H](C)NC(=O)[C@H](CCCNC(=N)N)NC(=O)[C@H](CCC(=O)O)NC(=O)[C@H](CC(=O)O)NC(=O)[C@H](CC(C)C)NC(=O)[C@H](Cc1ccc(O)cc1)NC(=O)[C@H](CCCCN)NC(=O)[C@H](CO)NC(=O)[C@H](Cc1ccc(O)cc1)NC(=O)[C@H](CC(=O)O)NC(=O)[C@H](CO)NC(=O)[C@@H](NC(=O)[C@H](Cc1ccccc1)NC(=O)[C@@H](NC(=O)CNC(=O)[C@H](CCC(N)=O)NC(=O)C(C)(C)NC(=O)[C@@H](N)Cc1c[nH]cn1)[C@@H](C)O)[C@@H](C)O)C(=O)N[C@@H](CCC(=O)O)C(=O)N[C@@H](Cc1ccccc1)C(=O)N[C@H](C(=O)N[C@@H](C)C(=O)N[C@@H](Cc1c[nH]c2ccccc12)C(=O)N[C@@H](CC(C)C)C(=O)N[C@@H](CCC(=O)O)C(=O)NCC(=O)N[C@@H](CCC(=O)O)C(=O)NCC(N)=O)[C@@H](C)CC)C(=O)O) [dgc018]	1.3	0.401
HXQGTFTSDYSKYLEERAAKEFIAWLEGEG (HELM PEPTIDE1{H.[Aib].Q.G.T.F.T.S.D.Y.S.K.Y.L.E.E.R.A.A.K.E.F.I.A.W.L.E.G.E.G.[am]}|PEPTIDE2{[CCCCCCCCCCCCCCCC(=O)[*:2]].[gGlu]}$PEPTIDE1,PEPTIDE2,20:R3-2:R2$$$V2.0; N-terminus assumed; SMILES CCCCCCCCCCCCCCCC(=O)N[C@@H](CCC(=O)NCCCC[C@H](NC(=O)[C@H](C)NC(=O)[C@H](C)NC(=O)[C@H](CCCNC(=N)N)NC(=O)[C@H](CCC(=O)O)NC(=O)[C@H](CCC(=O)O)NC(=O)[C@H](CC(C)C)NC(=O)[C@H](Cc1ccc(O)cc1)NC(=O)[C@H](CCCCN)NC(=O)[C@H](CO)NC(=O)[C@H](Cc1ccc(O)cc1)NC(=O)[C@H](CC(=O)O)NC(=O)[C@H](CO)NC(=O)[C@@H](NC(=O)[C@H](Cc1ccccc1)NC(=O)[C@@H](NC(=O)CNC(=O)[C@H](CCC(N)=O)NC(=O)C(C)(C)NC(=O)[C@@H](N)Cc1c[nH]cn1)[C@@H](C)O)[C@@H](C)O)C(=O)N[C@@H](CCC(=O)O)C(=O)N[C@@H](Cc1ccccc1)C(=O)N[C@H](C(=O)N[C@@H](C)C(=O)N[C@@H](Cc1c[nH]c2ccccc12)C(=O)N[C@@H](CC(C)C)C(=O)N[C@@H](CCC(=O)O)C(=O)NCC(=O)N[C@@H](CCC(=O)O)C(=O)NCC(N)=O)[C@@H](C)CC)C(=O)O) [dgc019]	1.83	0.792
HXQGTFTSDYSKYLEERAAKEFIAWLEGEG (HELM PEPTIDE1{H.[Aib].Q.G.T.F.T.S.D.Y.S.K.Y.L.E.E.R.A.A.K.E.F.I.A.W.L.E.G.E.G.[am]}|PEPTIDE2{[CCCCCCCCCCCCCCCC(=O)[*:2]].[gGlu].[gGlu]}$PEPTIDE1,PEPTIDE2,20:R3-3:R2$$$V2.0; N-terminus assumed; SMILES CCCCCCCCCCCCCCCC(=O)N[C@@H](CCC(=O)N[C@@H](CCC(=O)NCCCC[C@H](NC(=O)[C@H](C)NC(=O)[C@H](C)NC(=O)[C@H](CCCNC(=N)N)NC(=O)[C@H](CCC(=O)O)NC(=O)[C@H](CCC(=O)O)NC(=O)[C@H](CC(C)C)NC(=O)[C@H](Cc1ccc(O)cc1)NC(=O)[C@H](CCCCN)NC(=O)[C@H](CO)NC(=O)[C@H](Cc1ccc(O)cc1)NC(=O)[C@H](CC(=O)O)NC(=O)[C@H](CO)NC(=O)[C@@H](NC(=O)[C@H](Cc1ccccc1)NC(=O)[C@@H](NC(=O)CNC(=O)[C@H](CCC(N)=O)NC(=O)C(C)(C)NC(=O)[C@@H](N)Cc1c[nH]cn1)[C@@H](C)O)[C@@H](C)O)C(=O)N[C@@H](CCC(=O)O)C(=O)N[C@@H](Cc1ccccc1)C(=O)N[C@H](C(=O)N[C@@H](C)C(=O)N[C@@H](Cc1c[nH]c2ccccc12)C(=O)N[C@@H](CC(C)C)C(=O)N[C@@H](CCC(=O)O)C(=O)NCC(=O)N[C@@H](CCC(=O)O)C(=O)NCC(N)=O)[C@@H](C)CC)C(=O)O)C(=O)O) [dgc020]	0.883	1.51
H[Aib]QGTFTSDYSKYLEERAAKEFIAWLEGEG-NH2 (not fully specified (residue 20); printed as HAibQGTFTSDYSKYLEERAAK*EFIAWLEGEG) [dgc021]	3.93	0.382
HSQGTFTSDYSKYLDERAAKEFIAWLEAGG-NH2 (not fully specified (residue 20); printed as HSQGTFTSDYSKYLDERAAK*EFIAWLEAGG) [dgc001]	0.806	1.13
HXQGTFTSDYSKYLDERAAKEFIAWLEAGG (HELM PEPTIDE1{H.[Aib].Q.G.T.F.T.S.D.Y.S.K.Y.L.D.E.R.A.A.K.E.F.I.A.W.L.E.A.G.G.[am]}|PEPTIDE2{[CCCCCCCCCCCCCCCC(=O)[*:2]].[gGlu]}$PEPTIDE1,PEPTIDE2,20:R3-2:R2$$$V2.0; N-terminus assumed; SMILES CCCCCCCCCCCCCCCC(=O)N[C@@H](CCC(=O)NCCCC[C@H](NC(=O)[C@H](C)NC(=O)[C@H](C)NC(=O)[C@H](CCCNC(=N)N)NC(=O)[C@H](CCC(=O)O)NC(=O)[C@H](CC(=O)O)NC(=O)[C@H](CC(C)C)NC(=O)[C@H](Cc1ccc(O)cc1)NC(=O)[C@H](CCCCN)NC(=O)[C@H](CO)NC(=O)[C@H](Cc1ccc(O)cc1)NC(=O)[C@H](CC(=O)O)NC(=O)[C@H](CO)NC(=O)[C@@H](NC(=O)[C@H](Cc1ccccc1)NC(=O)[C@@H](NC(=O)CNC(=O)[C@H](CCC(N)=O)NC(=O)C(C)(C)NC(=O)[C@@H](N)Cc1c[nH]cn1)[C@@H](C)O)[C@@H](C)O)C(=O)N[C@@H](CCC(=O)O)C(=O)N[C@@H](Cc1ccccc1)C(=O)N[C@H](C(=O)N[C@@H](C)C(=O)N[C@@H](Cc1c[nH]c2ccccc12)C(=O)N[C@@H](CC(C)C)C(=O)N[C@@H](CCC(=O)O)C(=O)N[C@@H](C)C(=O)NCC(=O)NCC(N)=O)[C@@H](C)CC)C(=O)O) [dgc003]	1.04	0.291
